Laboratory results: publication PMC8948881, “Molecular Properties of Human Guanylate Cyclase-Activating Protein 3 (GCAP3) and Its Possible Association with Retinitis Pigmentosa” (International Journal of Molecular Sciences, 2022)
Residue numbers refer to the chain shown, from its start. Names may count otherwise.

T1: GC1 (GC-E, ROS-GC1, RetGC1) (Homo sapiens, UniProt Q02846)
T1 construct: gene GUCY2D
T1 sequence (Q02846 52-1103): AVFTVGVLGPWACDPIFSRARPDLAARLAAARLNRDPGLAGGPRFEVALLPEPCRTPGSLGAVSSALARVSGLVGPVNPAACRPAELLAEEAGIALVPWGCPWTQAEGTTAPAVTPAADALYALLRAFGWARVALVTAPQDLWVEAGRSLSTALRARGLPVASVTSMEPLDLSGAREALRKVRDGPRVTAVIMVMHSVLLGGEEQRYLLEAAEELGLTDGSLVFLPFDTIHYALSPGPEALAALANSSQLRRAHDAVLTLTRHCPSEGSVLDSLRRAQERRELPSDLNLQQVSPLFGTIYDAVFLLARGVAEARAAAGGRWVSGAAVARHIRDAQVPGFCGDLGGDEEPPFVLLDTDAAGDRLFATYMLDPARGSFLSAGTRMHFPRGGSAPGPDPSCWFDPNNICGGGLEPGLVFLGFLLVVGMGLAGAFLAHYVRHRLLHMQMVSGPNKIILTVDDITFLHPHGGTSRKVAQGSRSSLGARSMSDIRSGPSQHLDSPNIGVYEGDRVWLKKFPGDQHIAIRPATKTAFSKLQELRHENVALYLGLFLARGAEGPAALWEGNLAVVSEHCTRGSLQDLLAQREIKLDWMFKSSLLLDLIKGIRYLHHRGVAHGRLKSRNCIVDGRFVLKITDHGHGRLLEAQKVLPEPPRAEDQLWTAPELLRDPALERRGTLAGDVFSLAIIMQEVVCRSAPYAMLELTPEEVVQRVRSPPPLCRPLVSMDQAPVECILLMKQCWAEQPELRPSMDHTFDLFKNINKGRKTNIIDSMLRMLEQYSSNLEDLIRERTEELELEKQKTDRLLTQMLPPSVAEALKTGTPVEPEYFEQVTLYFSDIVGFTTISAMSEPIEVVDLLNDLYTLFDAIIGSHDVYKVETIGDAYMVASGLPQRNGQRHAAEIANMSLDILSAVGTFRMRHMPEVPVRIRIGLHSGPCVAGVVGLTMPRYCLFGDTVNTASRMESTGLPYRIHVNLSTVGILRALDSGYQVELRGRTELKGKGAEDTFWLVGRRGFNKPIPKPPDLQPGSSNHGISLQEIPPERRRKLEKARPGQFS
T1 sequence (O95843 2-209 partner): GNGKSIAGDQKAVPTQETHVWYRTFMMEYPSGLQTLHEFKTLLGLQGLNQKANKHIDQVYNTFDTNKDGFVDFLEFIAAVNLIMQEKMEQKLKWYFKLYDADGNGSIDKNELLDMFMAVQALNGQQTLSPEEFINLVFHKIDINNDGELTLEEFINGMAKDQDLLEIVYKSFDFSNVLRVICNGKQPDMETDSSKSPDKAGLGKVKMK

B1: non-myristoylated wild-type human GCAP3 (guanylate cyclase-activating protein 3) (natural protein, UniProt O95843-1 1-209, looked up)
chain: MGNGKSIAGDQKAVPTQETHVWYRTFMMEYPSGLQTLHEFKTLLGLQGLNQKANKHIDQVYNTFDTNKDGFVDFLEFIAAVNLIMQEKMEQKLKWYFKLYDADGNGSIDKNELLDMFMAVQALNGQQTLSPEEFINLVFHKIDINNDGELTLEEFINGMAKDQDLLEIVYKSFDFSNVLRVICNGKQPDMETDSSKSPDKAGLGKVKMK
notes: Cloned into a plasmid named pET11-E6S; also called nmWT; nmWT GCAP3
B2: myristoylated wild-type human GCAP3 (guanylate cyclase-activating protein 3) (natural protein, UniProt O95843-1 1-209, looked up)
chain: B1 chain
modifications: N-terminal myristoylation (degree of myristoylation 58.35%)
notes: Cloned into a plasmid named pET11-E6S; The sample is a mix of about 58% myristoylated and the rest non-myristoylated protein; also called mWT; mWT GCAP3
B3: non-myristoylated D101H variant of human GCAP3 (natural protein, UniProt O95843-1 1-209, looked up)
chain: B1 chain with D101H
notes: Variant found in a patient with retinitis pigmentosa; Cloned into a plasmid named pET11-E6S; also called nmD101H; nmD101H GCAP3

Legend:
[1] = target: T1, GC1 (GC-E, ROS-GC1, RetGC1); assay: cGMP production by reversed-phase HPLC; format: biochemical; settings: GC1 membranes, 1 mM free Mg2+, low (<19 nM) or high (~30 µM) Ca2+, pH 7.4; basal and with mGCAP3 or mGCAP1
[2] = target: the molecule itself; assay: SEC; analytical SEC, Superose 12 10/300GL, ~40 µM protein loaded, 20 mM Tris-HCl pH 7.5, 150 mM KCl, 1 mM DTT, 500 µM EGTA (apo), 25 °C; apparent MM from a calibration curve
[3] = target: the molecule itself; assay: SEC; analytical SEC, Superose 12 10/300GL, ~40 µM protein loaded, 20 mM Tris-HCl pH 7.5, 150 mM KCl, 1 mM DTT, 1 mM Mg2+ and 500 µM Ca2+, 25 °C; apparent MM from a calibration curve

Molecule	stoichiometry N [2]	also measured
Nc1nc2c(ncn2[C@@H]2O[C@@H]3COP(=O)(O)O[C@H]3[C@H]2O)c(=O)[nH]1 [cGMP]		cGMP production by reversed-phase HPLC [1]: The production of cGMP was analyzed by reversed phase HPLC
B1	2	
B2	2	
B3		stoichiometry N [3]: 2
